Results on 16 molecules are retold here after patent US20090191187A1 (published 2009).

B1: HUM2/2 (antibody, V domains shown)
VH: QVQLQESGPGLVKPSETLSLTCTVSELSLTSNSITWIRQPPGKGLEWIGMIWSNGDTDYNSAFTSRVTISRDTSKNQFSLKLSSVTAADTAVYYCARYNYYFDYWGQGTLVTVSS
VL: EIVLTQSPATLSLSPGERATLSCKASQNVDNRGVSYVHWYQQKPGQAPRLLIYKGSNLAFGVPARFSGSGSRTDFTLTISSLEPEDFATYYCQQSKGHPDTFGQGTKVEIK
notes: Humanized variant of 2D8
B2: DEI2/9 (antibody, V domains shown)
VH: QLQLQESGPGLVKPSQTLSLTCTVSGLSLTSNSITWVRQAPGQGLEWMGMIWSNGDTDYSTSLKSRLTISKDTSKSQVVLTMTNMDPVDTATYYCARYNYYFDYWGQGTLVTVSS
VL: B1 VL with E1D, R49K, A64S, R72G, E83Q, Q104A, V108L, I110L
notes: also called combination of HURDIVHv2 and HURDIVKv9
B3: DEI1/8 (antibody, V domains shown)
VH: QLQLQESGPGLVKPSQTLSLTCTVSGLSLTSNSITWVRQAPGQGLEWMGMIWSNGDTDYNSAFTSRFTISRDNSKNTLYLQMNSLKTEDTAVYYCARYNYYFDYWGQGTLVTVSS
VL: B1 VL with E1D, R49K, A64S, R72G, E83Q, Y91F, Q104A, V108L, I110L
B4: HUM2/3 (antibody, V domains shown)
VH: B1 VH
VL: B1 VL with L21I, A47Q, R49K
notes: also called combination of HUR HuVH v2 and HUR HuVK v3
B5: DEI5/5 (antibody, V domains shown)
VH: B2 VH with V37I, A40P, Q43K, L45P
VL: B1 VL with E1D, L21I, R49K, R72G, E83Q, Q104A, V108L, I110L
notes: also called combination of HURDIVHv5 and HURDIVKv5
B6: DEI2/4 (antibody, V domains shown)
VH: B2 VH
VL: B1 VL with E1D, R49K, R72G, E83Q, Q104A, V108L, I110L
notes: also called combination of HURDIVHv2 and HURDIVKv4
B7: DEI4/5 (antibody, V domains shown)
VH: B3 VH with V37I, A40P, Q43K, L45P
VL: B1 VL with E1D, L21I, R49K, R72G, E83Q, Q104A, V108L, I110L
notes: also called combination of HURDIVHv4 and HURDIVKv5
B8: DEI2/8 (antibody, V domains shown)
VH: B2 VH
VL: B1 VL with E1D, R49K, A64S, R72G, E83Q, Y91F, Q104A, V108L, I110L
notes: also called combination of HURDIVHv2 and HURDIVKv8
B9: chimeric 2D8 (IgG1) (antibody)
heavy: not shown
light: DIVLTQAPVLAVSLEQRATISCKASQNVDNRGVSYVHWYQQKPRQQPKLLIYKGSNLAFGVPARFSGSGSRTDFTLTIDPVETDDFATYYCQQSKGHPDTFGAGTKLELKRTVAAPSVFIFPPSDEQLKSGTASVVCLLNNFYPREAKVQWKVDNALQSGNSQESVTEQDSKDSTYSLSSTLTLSKADYEKHKVYACEVTHQGLSSPVTKSFNRGEC
B10: chimeric 2D8 (IgG4) (antibody)
heavy: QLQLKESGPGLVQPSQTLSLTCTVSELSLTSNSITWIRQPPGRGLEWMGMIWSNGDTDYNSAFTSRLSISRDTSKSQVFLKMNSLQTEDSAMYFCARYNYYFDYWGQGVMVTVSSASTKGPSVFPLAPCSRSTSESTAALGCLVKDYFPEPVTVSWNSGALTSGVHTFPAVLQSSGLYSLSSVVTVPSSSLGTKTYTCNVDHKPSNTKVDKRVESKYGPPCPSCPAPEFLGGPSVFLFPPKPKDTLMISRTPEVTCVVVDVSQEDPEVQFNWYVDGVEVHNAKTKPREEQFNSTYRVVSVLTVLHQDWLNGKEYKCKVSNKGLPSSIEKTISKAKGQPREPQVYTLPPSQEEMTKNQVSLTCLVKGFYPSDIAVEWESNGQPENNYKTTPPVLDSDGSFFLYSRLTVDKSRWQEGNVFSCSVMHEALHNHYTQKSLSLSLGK
light: B9 light
B11: antibody 2D8 (rat monoclonal antibody against human interleukin-1 receptor, from hybridoma cell line MAK<h-IL-1RI>2D8, DSM ACC 2601) (antibody, V domains shown)
VH: QLQLKESGPGLVQPSQTLSLTCTVSELSLTSNSITWIRQPPGRGLEWMGMIWSNGDTDYNSAFTSRLSISRDTSKSQVFLKMNSLQTEDSAMYFCARYNYYFDYWGQGVMVTVSS
VL: DIVLTQAPVLAVSLEQRATISCKASQNVDNRGVSYVHWYQQKPRQQPKLLIYKGSNLAFGVPARFSGSGSRTDFTLTIDPVETDDFATYYCQQSKGHPDTFGAGTKLEL
B12: DEI5/4 (antibody, V domains shown)
VH: B2 VH with V37I, A40P, Q43K, L45P
VL: B1 VL with E1D, R49K, R72G, E83Q, Q104A, V108L, I110L
B13: DEI4/7 (antibody, V domains shown)
VH: B3 VH with V37I, A40P, Q43K, L45P
VL: B1 VL with E1D, R49K, R72G, E83Q, Y91F, Q104A, V108L, I110L
B14: DEI5/9 (antibody, V domains shown)
VH: B2 VH with V37I, A40P, Q43K, L45P
VL: B1 VL with E1D, R49K, A64S, R72G, E83Q, Q104A, V108L, I110L
B15: DEI5/7 (antibody, V domains shown)
VH: B2 VH with V37I, A40P, Q43K, L45P
VL: B1 VL with E1D, R49K, R72G, E83Q, Y91F, Q104A, V108L, I110L
B16: DEI4/9 (antibody, V domains shown)
VH: B3 VH with V37I, A40P, Q43K, L45P
VL: B1 VL with E1D, R49K, A64S, R72G, E83Q, Q104A, V108L, I110L

Changes are numbered by the printed parent chain. “And” between values parts separate entries of the source, which are not always exact repeats. Equal entries are not always repeated.

The target in one experiment is T1, recombinant soluble human type 1 IL-1 receptor (extracellular domain, glycosylated) (human, UniProt P14778 21-333, N-glycosylated (from SF9 insect cells); biotinylated in the ELISA of Examples 2 and 4c).
T1 construct: also called hIL-1R; rshIL-1R
T1 sequence: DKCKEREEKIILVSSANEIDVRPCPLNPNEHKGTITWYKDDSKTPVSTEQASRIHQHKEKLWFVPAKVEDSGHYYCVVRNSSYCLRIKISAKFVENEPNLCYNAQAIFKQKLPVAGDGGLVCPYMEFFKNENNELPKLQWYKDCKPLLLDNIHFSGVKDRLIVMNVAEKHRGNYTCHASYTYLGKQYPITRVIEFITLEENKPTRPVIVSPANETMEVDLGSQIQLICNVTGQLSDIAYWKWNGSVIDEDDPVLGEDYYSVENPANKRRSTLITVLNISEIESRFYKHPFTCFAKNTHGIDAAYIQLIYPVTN
In words: ELISA on biotinylated human IL-1R on streptavidin plates. On the procedure:
The relative immunactivity of the antibodies as compared to 2D8 antibody was determined by ELISA. A soluble biotinylated human IL-1R was coated at room temperature for one hour to 96-well-plates (precoated with streptavidin). After blocking with BSA the antibody was diluted and added to the wells and incubated at room temperature for two hours. The plates were washed three times and incubated with horse-radish-peroxidase (POD)-conjugated rabbit-anti-rat-IgG at room temperature for one hour. After further washing the amount of bound antibody was determined by addition of TM-Blue® ([…]) and measurement of the absorbance at 370 nm.
(An ELISA detects its analyte on a solid surface through an enzyme-linked reagent.)
Regarding B1, the “ELISA (absorbance at 370 nm in relation to 2D8), 1st experiment” value (shortened to “ELISA … 1st experiment”) is 1.3 relative to 2D8; the “ELISA (absorbance at 370 nm in relation to 2D8), 2nd experiment” value (“ELISA … 2nd experiment” below) was 1.6 relative to 2D8; the “ELISA (absorbance at 370 nm in relation to 2D8), mean” value (from here on “ELISA … mean”) was 1.4 relative to 2D8.
Take B2: the “ELISA … 1st experiment” value was 1.4 relative to 2D8; the “ELISA … 2nd experiment” value is 1.8 relative to 2D8; the “ELISA … mean” value was 1.6 relative to 2D8.
In the case of B3, the “ELISA … 1st experiment” value is 2.1 relative to 2D8; the “ELISA … 2nd experiment” value was 2.2 relative to 2D8; the “ELISA … mean” value is 2.2 relative to 2D8.
For B4, the “ELISA … 1st experiment” value was 2.2 relative to 2D8; the “ELISA … 2nd experiment” value is 2.1 relative to 2D8; the “ELISA … mean” value is 2.2 relative to 2D8.
Take B5: the “ELISA … 1st experiment” value was 3.1 relative to 2D8; the “ELISA … 2nd experiment” value was 3.4 relative to 2D8; the “ELISA … mean” value is 3.3 relative to 2D8.
For B6, in that order: 1.5 relative to 2D8, 1.8 relative to 2D8 and 1.7 relative to 2D8.
For B7, in that order: 3 relative to 2D8, 2.2 relative to 2D8 and 2.6 relative to 2D8.
B8: the “ELISA … 1st experiment” value was 1.5 relative to 2D8; the “ELISA … 2nd experiment” value was 2.6 relative to 2D8; the “ELISA … mean” value was 2.1 relative to 2D8.

For the next experiment, the target named is T2, human interleukin-1 receptor on cells (MRC-5 human embryonic lung fibroblasts; human blood cells) (human, UniProt P14778 18-569).
T2 sequence (looked up): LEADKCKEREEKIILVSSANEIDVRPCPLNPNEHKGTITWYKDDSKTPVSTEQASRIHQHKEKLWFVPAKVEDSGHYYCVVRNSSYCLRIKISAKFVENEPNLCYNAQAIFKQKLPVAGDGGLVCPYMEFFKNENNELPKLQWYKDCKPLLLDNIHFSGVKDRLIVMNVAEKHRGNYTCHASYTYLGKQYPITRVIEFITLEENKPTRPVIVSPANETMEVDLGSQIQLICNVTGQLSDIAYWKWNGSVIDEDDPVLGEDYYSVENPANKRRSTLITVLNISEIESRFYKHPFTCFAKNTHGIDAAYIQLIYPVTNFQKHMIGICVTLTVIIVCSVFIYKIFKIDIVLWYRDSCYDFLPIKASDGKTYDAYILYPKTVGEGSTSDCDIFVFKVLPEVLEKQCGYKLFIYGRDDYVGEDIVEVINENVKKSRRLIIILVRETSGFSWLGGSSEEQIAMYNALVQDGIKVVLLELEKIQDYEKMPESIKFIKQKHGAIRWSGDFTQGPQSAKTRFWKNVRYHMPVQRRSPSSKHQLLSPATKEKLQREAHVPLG
In words: cell-based or functional assay.
Regarding B9, the “IC 50 for the inhibition of IL-8 secretion (h-IL1β stimulated MRC-5 cells)” value (“IC 50 for the inhibition” for short) was 4.7 pM and 0.71 ng/ml.
Take B10: the “IC 50 for the inhibition” value is 5.1 pM and 0.77 ng/ml.
Consider B11, for which the “IC 50 for the inhibition” value was 7.2 pM and 1.08 ng/ml.

The target of another experiment is T2, human interleukin-1 receptor on cells …. In words: cell-based or functional assay. The source holds these as a separate data set.
Regarding B12, the “Bioassay (IC50 in relation to 2D8), 1st experiment” value (“Bioassay … 1st experiment” for short) was 3.1 relative to 2D8; the “Bioassay (IC50 in relation to 2D8), 2nd experiment” value (from here on “Bioassay … 2nd experiment”) is 1.9 relative to 2D8; the “Bioassay (IC50 in relation to 2D8), Mean” value is 2.5 relative to 2D8.
With B1, the “Bioassay … 1st experiment” value was 0.9 relative to 2D8; the “Bioassay … 2nd experiment” value was 1 relative to 2D8; the “Bioassay (IC50 in relation to 2D8), Mean” value is 1 relative to 2D8.
As to B13, the “Bioassay … 1st experiment” value is 3.4 relative to 2D8; the “Bioassay … 2nd experiment” value was 3.5 relative to 2D8; the “Bioassay (IC50 in relation to 2D8), Mean” value was 3.5 relative to 2D8.
Regarding B14, the “Bioassay … 1st experiment” value was 1.6 relative to 2D8; the “Bioassay … 2nd experiment” value is 2.8 relative to 2D8; the “Bioassay (IC50 in relation to 2D8), Mean” value is 2.2 relative to 2D8.
For the molecule B15, the “Bioassay … 1st experiment” value was 3.4 relative to 2D8; the “Bioassay … 2nd experiment” value is 1.2 relative to 2D8; the “Bioassay (IC50 in relation to 2D8), Mean” value was 2.3 relative to 2D8.
For B16, the “Bioassay … 1st experiment” value was 5.2 relative to 2D8; the “Bioassay … 2nd experiment” value is 4.1 relative to 2D8; the “Bioassay (IC50 in relation to 2D8), Mean” value was 4.7 relative to 2D8.
The like results for B2 were, in that order, 2.7 relative to 2D8, 2.8 relative to 2D8 and 2.8 relative to 2D8.
Take B3: the “Bioassay … 1st experiment” value is 3.2 relative to 2D8; the “Bioassay … 2nd experiment” value was 0.7 relative to 2D8; the “Bioassay (IC50 in relation to 2D8), Mean” value is 2 relative to 2D8.
Regarding B4, the “Bioassay … 1st experiment” value is 0.8 relative to 2D8; the “Bioassay … 2nd experiment” value is 1.5 relative to 2D8; the “Bioassay (IC50 in relation to 2D8), Mean” value is 1.2 relative to 2D8.
On to B5, for which the “Bioassay … 1st experiment” value is 5.2 relative to 2D8; the “Bioassay … 2nd experiment” value was 3.9 relative to 2D8; the “Bioassay (IC50 in relation to 2D8), Mean” value is 4.6 relative to 2D8.
The like results for B6 were, in that order, 2.5 relative to 2D8, 2 relative to 2D8 and 2.3 relative to 2D8.
The like results for B7 were, in that order, 1.5 relative to 2D8, 4.5 relative to 2D8 and 3 relative to 2D8.
For B8, the “Bioassay … 1st experiment” value was 3.3 relative to 2D8; the “Bioassay … 2nd experiment” value was 1.4 relative to 2D8; the “Bioassay (IC50 in relation to 2D8), Mean” value was 2.4 relative to 2D8.
Consider B11, for which the “Bioassay (IC50 in relation to 2D8), Mean” value was 1 relative to 2D8.
